Paper PMC9482650, “Quantitative fragmentomics allow affinity mapping of interactomes” (Nature Communications, 2022)

T1: APBA2_1, Q99767
T1 sequence (Q99767 563-664, limits assumed, looked up): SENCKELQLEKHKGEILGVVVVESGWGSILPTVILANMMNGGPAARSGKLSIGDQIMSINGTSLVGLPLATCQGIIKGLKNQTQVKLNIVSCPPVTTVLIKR

T2: APBA3_1, O96018
T2 sequence (O96018 389-490, limits assumed, looked up): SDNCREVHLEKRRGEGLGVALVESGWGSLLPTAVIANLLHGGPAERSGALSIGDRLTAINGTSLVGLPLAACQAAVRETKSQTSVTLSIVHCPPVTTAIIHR

T3: ARHGEF11, O15085
T3 sequence (O15085 42-136, limits assumed, looked up): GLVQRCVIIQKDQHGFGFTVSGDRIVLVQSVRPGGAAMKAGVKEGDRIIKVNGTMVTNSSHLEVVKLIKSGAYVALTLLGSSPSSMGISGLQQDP

T4: CARD11, Q9BXL7
T4 sequence (Q9BXL7 662-765, limits assumed, looked up): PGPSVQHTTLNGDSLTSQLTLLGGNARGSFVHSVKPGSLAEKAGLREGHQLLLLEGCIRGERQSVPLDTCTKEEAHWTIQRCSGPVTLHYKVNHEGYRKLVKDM

T5: DVL3, Q92997
T5 sequence (Q92997 244-331, limits assumed, looked up): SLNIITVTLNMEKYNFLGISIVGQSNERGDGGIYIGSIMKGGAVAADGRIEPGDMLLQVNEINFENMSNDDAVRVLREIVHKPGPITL

T6: FRMPD1, Q5SYB0
T6 sequence (Q5SYB0 52-145, limits assumed, looked up): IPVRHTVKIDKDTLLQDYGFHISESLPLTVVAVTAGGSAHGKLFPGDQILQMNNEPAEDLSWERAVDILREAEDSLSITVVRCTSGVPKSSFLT

T7: GRIP1_2, Q9Y3R0
T7 sequence (Q9Y3R0 145-248, limits assumed, looked up): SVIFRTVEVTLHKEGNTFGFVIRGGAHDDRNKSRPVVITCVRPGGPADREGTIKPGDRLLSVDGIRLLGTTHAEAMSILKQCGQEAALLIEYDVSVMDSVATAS

T8: MPP6, Q9NZW5
T8 sequence (Q9NZW5 125-219, limits assumed, looked up): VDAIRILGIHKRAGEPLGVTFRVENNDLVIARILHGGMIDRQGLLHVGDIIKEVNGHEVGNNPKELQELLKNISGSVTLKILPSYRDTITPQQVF

T9: NHERF3_1, Q5T2W1
T9 sequence (Q5T2W1 4-100, limits assumed, looked up): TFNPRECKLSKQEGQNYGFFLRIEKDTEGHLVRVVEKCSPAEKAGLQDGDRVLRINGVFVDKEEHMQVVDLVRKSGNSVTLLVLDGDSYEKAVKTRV

T10: PCLO, Q9Y6V0
T10 sequence (Q9Y6V0 4491-4600, limits assumed, looked up): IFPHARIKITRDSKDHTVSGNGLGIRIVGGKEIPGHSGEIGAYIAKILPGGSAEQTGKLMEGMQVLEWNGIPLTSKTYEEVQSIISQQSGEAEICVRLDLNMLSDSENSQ

T11: SNTA1, Q13424
T11 sequence (Q13424 82-180, limits assumed, looked up): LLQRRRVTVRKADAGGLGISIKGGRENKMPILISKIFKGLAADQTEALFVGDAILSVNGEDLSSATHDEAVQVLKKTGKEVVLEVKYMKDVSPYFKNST

T12: TIAM2, Q8IVF5
T12 sequence (Q8IVF5 885-986, limits assumed, looked up): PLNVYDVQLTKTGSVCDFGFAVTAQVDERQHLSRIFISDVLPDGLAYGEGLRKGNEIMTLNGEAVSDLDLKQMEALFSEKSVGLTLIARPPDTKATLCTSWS

T13: TJP3_3, O95049
T13 sequence (O95049 375-456, limits assumed, looked up): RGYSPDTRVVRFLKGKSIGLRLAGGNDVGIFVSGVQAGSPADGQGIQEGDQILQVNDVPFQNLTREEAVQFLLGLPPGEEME

B1: GRIA3, P42263 (peptide)
chain: NVYGTESVKI
B2: SSTR5, P35346 (peptide)
chain: ANGLMQTSKL

The binders below were run against T1, APBA2_1, Q99767 (assay: holdup assay). Conditions: plain residues with an end cap or a label only (N-terminal biotin on a linker: ado-ado).
Set-up: key: below the threshold = too weak to quantify, mostly under pKd 3.1 to 4

B1 was tested. Which pKd did it give?
The pKd was “below the threshold”.

B2 was tested. Which pKd did it give?
The pKd was “below the threshold”.

Each binder was assayed against T2, APBA3_1, O96018 (assay: holdup assay). Conditions: plain residues with an end cap or a label only (N-terminal biotin on a linker: ado-ado).
Set-up: key: below the threshold = too weak to quantify, mostly under pKd 3.1 to 4

B1 was tested. Which pKd did it give?
The pKd was “below the threshold”.

B2 was tested. Which pKd did it give?
The pKd was “below the threshold”.

The binders below were run against T3, ARHGEF11, O15085 (assay: holdup assay). Conditions: plain residues with an end cap or a label only (N-terminal biotin on a linker: ado-ado).
Set-up: key: below the threshold = too weak to quantify, mostly under pKd 3.1 to 4

How did the pKd turn out when B1 was run?
Its pKd is “below the threshold”.

How did the pKd turn out when B2 was run?
Its pKd is 3.8.

The binders below were run against ARHGEF12, Q9NZN5-2 (assay: holdup assay). Conditions: plain residues with an end cap or a label only (N-terminal biotin on a linker: ado-ado).
Set-up: key: below the threshold = too weak to quantify, mostly under pKd 3.1 to 4

Chain of ARHGEF12, Q9NZN5-2 (Q9NZN5 other isoform, or with tags, fused parts or gaps): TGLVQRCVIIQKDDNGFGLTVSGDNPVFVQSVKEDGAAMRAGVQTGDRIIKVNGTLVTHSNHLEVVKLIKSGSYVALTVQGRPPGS

How did the pKd turn out when B1 was run?
Its pKd is “below the threshold”.

Which pKd does the source give for B2 here?
Its pKd is 4.62.

Each binder was assayed against T4, CARD11, Q9BXL7 (assay: holdup assay). Conditions: plain residues with an end cap or a label only (N-terminal biotin on a linker: ado-ado).
Set-up: key: below the threshold = too weak to quantify, mostly under pKd 3.1 to 4

Which pKd does the source give for B1 here?
The pKd was “below the threshold”.

With B2 as the binder, how does the pKd read?
The pKd was “below the threshold”.

The binders below were run against CASK, O14936 (assay: holdup assay). Conditions: plain residues with an end cap or a label only (N-terminal biotin on a linker: ado-ado).
Set-up: key: below the threshold = too weak to quantify, mostly under pKd 3.1 to 4

Chain of CASK, O14936 (O14936 487-570): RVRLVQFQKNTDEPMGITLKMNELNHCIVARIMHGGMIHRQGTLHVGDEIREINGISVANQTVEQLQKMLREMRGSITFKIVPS

B1 was tested. Which pKd did it give?
Its pKd is “below the threshold”.

Which pKd does the source give for B2 here?
The pKd was “below the threshold”.

The binders below were run against DLG5_1, Q8TDM6 (assay: holdup assay). Conditions: plain residues with an end cap or a label only (N-terminal biotin on a linker: ado-ado).
Set-up: key: below the threshold = too weak to quantify, mostly under pKd 3.1 to 4

Chain of DLG5_1, Q8TDM6 (Q8TDM6 617-713): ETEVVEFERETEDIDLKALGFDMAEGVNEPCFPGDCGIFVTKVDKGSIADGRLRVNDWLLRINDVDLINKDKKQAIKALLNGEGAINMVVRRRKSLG

Which pKd does the source give for B1 here?
The pKd was “below the threshold”.

Which pKd does the source give for B2 here?
The pKd was “below the threshold”.

Each binder was assayed against T5, DVL3, Q92997 (assay: holdup assay). Conditions: plain residues with an end cap or a label only (N-terminal biotin on a linker: ado-ado).
Set-up: key: below the threshold = too weak to quantify, mostly under pKd 3.1 to 4

How did the pKd turn out when B1 was run?
The pKd was “below the threshold”.

B2 was tested. Which pKd did it give?
The pKd was “below the threshold”.

Each binder was assayed against T6, FRMPD1, Q5SYB0 (assay: holdup assay). Conditions: plain residues with an end cap or a label only (N-terminal biotin on a linker: ado-ado).
Set-up: key: below the threshold = too weak to quantify, mostly under pKd 3.1 to 4

For B1, which pKd is on record?
Its pKd is “below the threshold”.

For B2, which pKd is on record?
The pKd was “below the threshold”.

What follows are binders tested against T7, GRIP1_2, Q9Y3R0 (assay: holdup assay). Conditions: plain residues with an end cap or a label only (N-terminal biotin on a linker: ado-ado).
Set-up: key: below the threshold = too weak to quantify, mostly under pKd 3.1 to 4

With B1 as the binder, how does the pKd read?
The pKd was “below the threshold”.

For B2, which pKd is on record?
Its pKd is “below the threshold”.

Each binder was assayed against GRIP2_3, Q9C0E4 (assay: holdup assay). Conditions: plain residues with an end cap or a label only (N-terminal biotin on a linker: ado-ado).
Set-up: key: below the threshold = too weak to quantify, mostly under pKd 3.1 to 4

Chain of GRIP2_3, Q9C0E4 (Q9C0E4 238-339): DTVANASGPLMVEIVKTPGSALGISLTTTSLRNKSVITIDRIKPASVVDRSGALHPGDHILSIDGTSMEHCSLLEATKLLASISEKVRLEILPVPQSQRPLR

B1 was tested. Which pKd did it give?
The pKd was “below the threshold”.

With B2 as the binder, how does the pKd read?
The pKd was “below the threshold”.

What follows are binders tested against GRIP2_6, Q9C0E4 (assay: holdup assay). Conditions: plain residues with an end cap or a label only (N-terminal biotin on a linker: ado-ado).
Set-up: key: below the threshold = too weak to quantify, mostly under pKd 3.1 to 4

Chain of GRIP2_6, Q9C0E4 (Q9C0E4 648-740): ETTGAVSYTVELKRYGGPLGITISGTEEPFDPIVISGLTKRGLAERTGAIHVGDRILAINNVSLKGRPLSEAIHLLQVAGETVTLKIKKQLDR

B1 was tested. Which pKd did it give?
Its pKd is “below the threshold”.

B2 was tested. Which pKd did it give?
The pKd was “below the threshold”.

The binders below were run against HTRA2, O43464 (assay: holdup assay). Conditions: plain residues with an end cap or a label only (N-terminal biotin on a linker: ado-ado).
Set-up: key: below the threshold = too weak to quantify, mostly under pKd 3.1 to 4

Chain of HTRA2, O43464 (O43464 355-458): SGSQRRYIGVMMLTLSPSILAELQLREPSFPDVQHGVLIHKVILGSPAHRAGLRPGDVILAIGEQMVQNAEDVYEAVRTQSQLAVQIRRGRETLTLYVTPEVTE

With B1 as the binder, how does the pKd read?
The pKd was “below the threshold”.

B2 was tested. Which pKd did it give?
Its pKd is “below the threshold”.

These binders were tested against IL16_1, Q14005 (assay: holdup assay). Conditions: plain residues with an end cap or a label only (N-terminal biotin on a linker: ado-ado).
Set-up: key: below the threshold = too weak to quantify, mostly under pKd 3.1 to 4

Chain of IL16_1, Q14005 (Q14005 210-306): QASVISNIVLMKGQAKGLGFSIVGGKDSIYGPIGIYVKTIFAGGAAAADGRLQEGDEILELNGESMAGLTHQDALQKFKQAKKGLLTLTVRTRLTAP

How did the pKd turn out when B1 was run?
Its pKd is “below the threshold”.

How did the pKd turn out when B2 was run?
Its pKd is “below the threshold”.

The binders below were run against Inadl_6, Q8NI35 (assay: holdup assay). Conditions: plain residues with an end cap or a label only (N-terminal biotin on a linker: ado-ado).
Set-up: key: below the threshold = too weak to quantify, mostly under pKd 3.1 to 4

Chain of Inadl_6, Q8NI35 (Q8NI35 1058-1167): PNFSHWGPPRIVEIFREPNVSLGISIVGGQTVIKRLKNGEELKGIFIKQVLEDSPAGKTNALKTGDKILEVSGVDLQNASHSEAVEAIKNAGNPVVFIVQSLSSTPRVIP

Which pKd does the source give for B1 here?
Its pKd is “below the threshold”.

B2 was tested. Which pKd did it give?
The pKd was “below the threshold”.

What follows are binders tested against MAGI2_6, Q86UL8 (assay: holdup assay). Conditions: plain residues with an end cap or a label only (N-terminal biotin on a linker: ado-ado).
Set-up: key: below the threshold = too weak to quantify, mostly under pKd 3.1 to 4

Chain of MAGI2_6, Q86UL8 (Q86UL8 1141-1229): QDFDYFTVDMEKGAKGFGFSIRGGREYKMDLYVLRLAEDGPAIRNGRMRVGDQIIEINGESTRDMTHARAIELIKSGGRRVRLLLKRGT

With B1 as the binder, how does the pKd read?
Its pKd is “below the threshold”.

How did the pKd turn out when B2 was run?
Its pKd is “below the threshold”.

These binders were tested against T8, MPP6, Q9NZW5 (assay: holdup assay). Conditions: plain residues with an end cap or a label only (N-terminal biotin on a linker: ado-ado).
Set-up: key: below the threshold = too weak to quantify, mostly under pKd 3.1 to 4

B1 was tested. Which pKd did it give?
The pKd was “below the threshold”.

B2 was tested. Which pKd did it give?
Its pKd is “below the threshold”.

These binders were tested against T9, NHERF3_1, Q5T2W1 (assay: holdup assay). Conditions: plain residues with an end cap or a label only (N-terminal biotin on a linker: ado-ado).
Set-up: key: below the threshold = too weak to quantify, mostly under pKd 3.1 to 4

B1 was tested. Which pKd did it give?
Its pKd is “below the threshold”.

How did the pKd turn out when B2 was run?
The pKd was 5.15.

These binders were tested against NHERF4_2, Q86UT5 (assay: holdup assay). Conditions: plain residues with an end cap or a label only (N-terminal biotin on a linker: ado-ado).
Set-up: key: below the threshold = too weak to quantify, mostly under pKd 3.1 to 4

Chain of NHERF4_2, Q86UT5 (Q86UT5 220-308): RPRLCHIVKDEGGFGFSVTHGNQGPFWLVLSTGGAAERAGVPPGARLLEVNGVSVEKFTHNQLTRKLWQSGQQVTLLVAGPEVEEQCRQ

For B1, which pKd is on record?
Its pKd is “below the threshold”.

With B2 as the binder, how does the pKd read?
The pKd was “below the threshold”.

What follows are binders tested against NOS1, P29475 (assay: holdup assay). Conditions: plain residues with an end cap or a label only (N-terminal biotin on a linker: ado-ado).
Set-up: key: below the threshold = too weak to quantify, mostly under pKd 3.1 to 4

Chain of NOS1, P29475 (P29475 9-101): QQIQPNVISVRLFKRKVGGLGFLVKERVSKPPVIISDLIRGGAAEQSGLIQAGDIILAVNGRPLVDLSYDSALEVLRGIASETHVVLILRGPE

For B1, which pKd is on record?
Its pKd is 3.56.

B2 was tested. Which pKd did it give?
Its pKd is “below the threshold”.

These binders were tested against T10, PCLO, Q9Y6V0 (assay: holdup assay). Conditions: plain residues with an end cap or a label only (N-terminal biotin on a linker: ado-ado).
Set-up: key: below the threshold = too weak to quantify, mostly under pKd 3.1 to 4

B1 was tested. Which pKd did it give?
Its pKd is “below the threshold”.

For B2, which pKd is on record?
The pKd was “below the threshold”.

These binders were tested against PICK1, Q9NRD5 (assay: holdup assay). Conditions: plain residues with an end cap or a label only (N-terminal biotin on a linker: ado-ado).
Set-up: key: below the threshold = too weak to quantify, mostly under pKd 3.1 to 4

Chain of PICK1, Q9NRD5 (Q9NRD5 17-115): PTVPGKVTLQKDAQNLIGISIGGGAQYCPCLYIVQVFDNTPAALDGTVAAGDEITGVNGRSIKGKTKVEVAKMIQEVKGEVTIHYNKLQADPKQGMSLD

How did the pKd turn out when B1 was run?
Its pKd is “below the threshold”.

With B2 as the binder, how does the pKd read?
The pKd was 4.08.

The binders below were run against T11, SNTA1, Q13424 (assay: holdup assay). Conditions: plain residues with an end cap or a label only (N-terminal biotin on a linker: ado-ado).
Set-up: key: below the threshold = too weak to quantify, mostly under pKd 3.1 to 4

Which pKd does the source give for B1 here?
Its pKd is “below the threshold”.

B2 was tested. Which pKd did it give?
The pKd was “below the threshold”.

Each binder was assayed against T12, TIAM2, Q8IVF5 (assay: holdup assay). Conditions: plain residues with an end cap or a label only (N-terminal biotin on a linker: ado-ado).
Set-up: key: below the threshold = too weak to quantify, mostly under pKd 3.1 to 4

How did the pKd turn out when B1 was run?
The pKd was “below the threshold”.

For B2, which pKd is on record?
Its pKd is 3.65.

These binders were tested against T13, TJP3_3, O95049 (assay: holdup assay). Conditions: plain residues with an end cap or a label only (N-terminal biotin on a linker: ado-ado).
Set-up: key: below the threshold = too weak to quantify, mostly under pKd 3.1 to 4

How did the pKd turn out when B1 was run?
The pKd was “below the threshold”.

How did the pKd turn out when B2 was run?
The pKd was “below the threshold”.
